Like-named read-outs stand apart in the source and are kept apart here.
Key:
Test in all cases: cell-based or functional assay
[1] = target: human TSH receptor (full length, wild type) expressed on CHO cells (human) (UniProt P16473)
[2] = target: TSHR with Glu107 mutated to Ala expressed in CHO cells (human) (UniProt P16473)
[3] = target: TSHR with Glu178 mutated to Ala expressed in CHO cells (human) (UniProt P16473)
[4] = target: TSHR with Glu61 mutated to Ala, expressed in CHO cells (human) (UniProt P16473)
[5] = target: TSHR with Ile60 mutated to Ala, expressed in CHO cells (human) (UniProt P16473)
[6] = target: TSHR with Lys183 mutated to Asp expressed in CHO cells (human) (UniProt P16473)
[7] = target: TSHR with Ser281 mutated to Ala, expressed in CHO cells (human) (UniProt P16473)
[8] = target: TSHR with Tyr82 mutated to Ala expressed in CHO cells (human) (UniProt P16473)
[9] = target: wild type TSHR (human TSH receptor) expressed in CHO cells (human) (UniProt P16473)
[10] = target: wild type TSHR expressed in CHO cells (human) (UniProt P16473)
[11] = target: TSHR with Phe130 mutated to Ala, expressed in CHO cells (human) (UniProt P16473)
[12] = target: wild type TSHR expressed in CHO cells (human) (UniProt P16473); remark: listed apart in the source
[13] = target: TSHR with Phe134 mutated to Ala, expressed in CHO cells (human) (UniProt P16473)
[14] = target: wild type TSHR expressed in CHO cells (human) (UniProt P16473); remark: listed apart in the source
[15] = target: human TSH receptor (full length, wild type) expressed in CHO cells (human) (UniProt P16473)

recombinant human TSH (from UniProt P01215 25-116; P01222 21-138) (ligand)
Cyclic AMP concentration in hypotonic medium; 100 ng/mL rhTSH alone [1]: 37.8 pmol/mL | Cyclic AMP concentration in isotonic medium; 100 ng/mL rhTSH alone [1]: 29.9 pmol/mL

5B3 (human monoclonal antibody to GAD, negative control for K1-70)
% inhibition of TSH stimulation; 5B3 10 µg/mL [2]: 15% | % inhibition of TSH stimulation; 5B3 100 µg/mL [2]: 17% | Cyclic AMP produced; 5B3 10 µg/mL + TSH 3 ng/mL [2]: 70.9 pmol/mL | Cyclic AMP produced; 5B3 100 µg/mL + TSH 3 ng/mL [2]: 66.8 pmol/mL | Mutated/wild type (%) of cyclic AMP produced; 5B3 10 µg/mL + TSH 3 ng/mL [2]: 83% | Mutated/wild type (%) of cyclic AMP produced; 5B3 100 µg/mL + TSH 3 ng/mL [2]: 82% | % inhibition of TSH stimulation; 5B3 10 µg/mL; Exp 1 [3]: 0% | % inhibition of TSH stimulation; 5B3 10 µg/mL; Exp 2 [3]: 0% | % inhibition of TSH stimulation; 5B3 100 µg/mL; Exp 1 [3]: 0% | % inhibition of TSH stimulation; 5B3 100 µg/mL; Exp 2 [3]: 3% | Cyclic AMP produced; 5B3 10 µg/mL + TSH 3 ng/mL; Exp 1 [3]: 57.6 pmol/mL | Cyclic AMP produced; 5B3 10 µg/mL + TSH 3 ng/mL; Exp 2 [3]: 55 pmol/mL | Cyclic AMP produced; 5B3 100 µg/mL + TSH 3 ng/mL; Exp 1 [3]: 57 pmol/mL | Cyclic AMP produced; 5B3 100 µg/mL + TSH 3 ng/mL; Exp 2 [3]: 45 pmol/mL | Mutated/wild type (%) of cyclic AMP produced; 5B3 10 µg/mL + TSH 3 ng/mL; Exp 1 [3]: 88% | Mutated/wild type (%) of cyclic AMP produced; 5B3 10 µg/mL + TSH 3 ng/mL; Exp 2 [3]: 55% | Mutated/wild type (%) of cyclic AMP produced; 5B3 100 µg/mL + TSH 3 ng/mL; Exp 1 [3]: 87% | Mutated/wild type (%) of cyclic AMP produced; 5B3 100 µg/mL + TSH 3 ng/mL; Exp 2 [3]: 46% | % inhibition of TSH stimulation; 5B3 10 µg/mL [4]: 0% | % inhibition of TSH stimulation; 5B3 100 µg/mL [4]: 9% | Mutated/wild type (%) of cyclic AMP produced; 5B3 10 µg/mL + TSH 3 ng/mL [4]: 68% | Mutated/wild type (%) of cyclic AMP produced; 5B3 100 µg/mL + TSH 3 ng/mL [4]: 55% | % inhibition of TSH stimulation; 5B3 10 µg/mL; Experiment 1 [5]: 0% | % inhibition of TSH stimulation; 5B3 10 µg/mL; Experiment 2 [5]: 17% | % inhibition of TSH stimulation; 5B3 100 µg/mL; Experiment 1 [5]: 14% | % inhibition of TSH stimulation; 5B3 100 µg/mL; Experiment 2 [5]: 0% | Mutated/wild type (%) of cyclic AMP produced; 5B3 10 µg/mL + TSH 3 ng/mL; Experiment 1 [5]: 58% | Mutated/wild type (%) of cyclic AMP produced; 5B3 10 µg/mL + TSH 3 ng/mL; Experiment 2 [5]: 53% | Mutated/wild type (%) of cyclic AMP produced; 5B3 100 µg/mL + TSH 3 ng/mL; Experiment 1 [5]: 50% | Mutated/wild type (%) of cyclic AMP produced; 5B3 100 µg/mL + TSH 3 ng/mL; Experiment 2 [5]: 62% | % inhibition of TSH stimulation; 5B3 10 µg/mL [6]: 11% | % inhibition of TSH stimulation; 5B3 100 µg/mL [6]: 0% | Cyclic AMP produced; 5B3 10 µg/mL + TSH 3 ng/mL [6]: 105 pmol/mL | Cyclic AMP produced; 5B3 100 µg/mL + TSH 3 ng/mL [6]: 128 pmol/mL | Mutated/wild type (%) of cyclic AMP produced; 5B3 10 µg/mL + TSH 3 ng/mL [6]: 112% | Mutated/wild type (%) of cyclic AMP produced; 5B3 100 µg/mL + TSH 3 ng/mL [6]: 117% | % inhibition of TSH stimulation; 5B3 10 µg/mL; Experiment 1 [7]: 19% | % inhibition of TSH stimulation; 5B3 10 µg/mL; Experiment 2 [7]: 4% | % inhibition of TSH stimulation; 5B3 100 µg/mL; Experiment 1 [7]: 11% | % inhibition of TSH stimulation; 5B3 100 µg/mL; Experiment 2 [7]: 0% | Mutated/wild type (%) of cyclic AMP produced; test sample 5B3 10 µg/mL + TSH (3 ng/mL); Experiment 1 [7]: 67% | Mutated/wild type (%) of cyclic AMP produced; test sample 5B3 10 µg/mL + TSH (3 ng/mL); Experiment 2 [7]: 80% | Mutated/wild type (%) of cyclic AMP produced; test sample 5B3 100 µg/mL + TSH (3 ng/mL); Experiment 1 [7]: 71% | Mutated/wild type (%) of cyclic AMP produced; test sample 5B3 100 µg/mL + TSH (3 ng/mL); Experiment 2 [7]: 87% | % inhibition of TSH stimulation; 5B3 10 µg/mL; Experiment 1 [8]: 16% | % inhibition of TSH stimulation; 5B3 10 µg/mL; Experiment 2 [8]: 4% | % inhibition of TSH stimulation; 5B3 100 µg/mL; Experiment 1 [8]: 16% | % inhibition of TSH stimulation; 5B3 100 µg/mL; Experiment 2 [8]: 8% | Cyclic AMP produced; 5B3 10 µg/mL + TSH 3 ng/mL; Experiment 1 [8]: 139 pmol/mL | Cyclic AMP produced; 5B3 10 µg/mL + TSH 3 ng/mL; Experiment 2 [8]: 71.9 pmol/mL | Cyclic AMP produced; 5B3 100 µg/mL + TSH 3 ng/mL; Experiment 1 [8]: 139 pmol/mL | Cyclic AMP produced; 5B3 100 µg/mL + TSH 3 ng/mL; Experiment 2 [8]: 68.5 pmol/mL | Mutated/wild type (%) of cyclic AMP produced; 5B3 10 µg/mL + TSH 3 ng/mL; Experiment 1 [8]: 85% | Mutated/wild type (%) of cyclic AMP produced; 5B3 10 µg/mL + TSH 3 ng/mL; Experiment 2 [8]: 96% | Mutated/wild type (%) of cyclic AMP produced; 5B3 100 µg/mL + TSH 3 ng/mL; Experiment 1 [8]: 95% | Mutated/wild type (%) of cyclic AMP produced; 5B3 100 µg/mL + TSH 3 ng/mL; Experiment 2 [8]: 99% | % inhibition of TSH stimulation; 5B3 10 µg/mL [9]: 1% | % inhibition of TSH stimulation; 5B3 10 µg/mL; Experiment 1 [9]: 0% | % inhibition of TSH stimulation; 5B3 10 µg/mL; Experiment 2 [9]: 0% | % inhibition of TSH stimulation; 5B3 100 µg/mL [9]: 0% | % inhibition of TSH stimulation; 5B3 100 µg/mL; Experiment 1 [9]: 2% | % inhibition of TSH stimulation; 5B3 100 µg/mL; Experiment 2 [9]: 0% | % inhibition of TSH stimulation; 5B3 10 µg/mL [10]: 0% | % inhibition of TSH stimulation; 5B3 10 µg/mL; Exp 1 [10]: 0% | % inhibition of TSH stimulation; 5B3 10 µg/mL; Exp 2 [10]: 0% | % inhibition of TSH stimulation; 5B3 10 µg/mL; Experiment 1 [10]: 0% | % inhibition of TSH stimulation; 5B3 10 µg/mL; Experiment 2 [10]: 0% | % inhibition of TSH stimulation; 5B3 100 µg/mL [10]: 0% | % inhibition of TSH stimulation; 5B3 100 µg/mL; Exp 1 [10]: 0% | % inhibition of TSH stimulation; 5B3 100 µg/mL; Exp 2 [10]: 0% | % inhibition of TSH stimulation; 5B3 100 µg/mL; Experiment 1 [10]: 5% | % inhibition of TSH stimulation; 5B3 100 µg/mL; Experiment 2 [10]: 0% | Cyclic AMP produced; 5B3 10 µg/mL + TSH 3 ng/mL [10]: 85.3 pmol/mL | Cyclic AMP produced; 5B3 10 µg/mL + TSH 3 ng/mL; Exp 1 [10]: 65.7 pmol/mL | Cyclic AMP produced; 5B3 10 µg/mL + TSH 3 ng/mL; Exp 2 [10]: 100 pmol/mL | Cyclic AMP produced; 5B3 10 µg/mL + TSH 3 ng/mL; Experiment 1 [10]: 163 pmol/mL | Cyclic AMP produced; 5B3 10 µg/mL + TSH 3 ng/mL; Experiment 2 [10]: 73.7 pmol/mL | Cyclic AMP produced; 5B3 100 µg/mL + TSH 3 ng/mL [10]: 81.6 pmol/mL | Cyclic AMP produced; 5B3 100 µg/mL + TSH 3 ng/mL; Exp 1 [10]: 65.5 pmol/mL | Cyclic AMP produced; 5B3 100 µg/mL + TSH 3 ng/mL; Exp 2 [10]: 98.1 pmol/mL | Cyclic AMP produced; 5B3 100 µg/mL + TSH 3 ng/mL; Experiment 1 [10]: 146 pmol/mL | Cyclic AMP produced; 5B3 100 µg/mL + TSH 3 ng/mL; Experiment 2 [10]: 68.9 pmol/mL | % inhibition of TSH stimulation; 5B3 10 µg/mL ([10]; record 2): 0% | % inhibition of TSH stimulation; 5B3 10 µg/mL; Experiment 1 ([10]; record 2): 4% | % inhibition of TSH stimulation; 5B3 10 µg/mL; Experiment 2 ([10]; record 2): 0% | % inhibition of TSH stimulation; 5B3 100 µg/mL ([10]; record 2): 0% | % inhibition of TSH stimulation; 5B3 100 µg/mL; Experiment 1 ([10]; record 2): 0% | % inhibition of TSH stimulation; 5B3 100 µg/mL; Experiment 2 ([10]; record 2): 0% | Cyclic AMP produced; 5B3 10 µg/mL + TSH 3 ng/mL ([10]; record 2): 93.7 pmol/mL | Cyclic AMP produced; 5B3 100 µg/mL + TSH 3 ng/mL ([10]; record 2): 109 pmol/mL | % inhibition of TSH stimulation; 5B3 10 µg/mL [11]: 8% | % inhibition of TSH stimulation; 5B3 100 µg/mL [11]: 6% | Cyclic AMP produced; 5B3 10 µg/mL + TSH 3 ng/mL [11]: 111 pmol/mL | Cyclic AMP produced; 5B3 100 µg/mL + TSH 3 ng/mL [11]: 114 pmol/mL | Mutated/wild type (%) of cyclic AMP produced; 5B3 10 µg/mL + TSH 3 ng/mL [11]: 142% | Mutated/wild type (%) of cyclic AMP produced; 5B3 100 µg/mL + TSH 3 ng/mL [11]: 131% | % inhibition of TSH stimulation; 5B3 10 µg/mL [12]: 2% | % inhibition of TSH stimulation; 5B3 100 µg/mL [12]: 0% | Cyclic AMP produced; 5B3 10 µg/mL + TSH 3 ng/mL [12]: 78.2 pmol/mL | Cyclic AMP produced; 5B3 100 µg/mL + TSH 3 ng/mL [12]: 86.9 pmol/mL | % inhibition of TSH stimulation; 5B3 10 µg/mL [13]: 9% | % inhibition of TSH stimulation; 5B3 100 µg/mL [13]: 0% | Cyclic AMP produced; 5B3 10 µg/mL + TSH 3 ng/mL [13]: 101 pmol/mL | Cyclic AMP produced; 5B3 100 µg/mL + TSH 3 ng/mL [13]: 116 pmol/mL | Mutated/wild type (%) of cyclic AMP produced; 5B3 10 µg/mL + TSH 3 ng/mL [13]: 77% | Mutated/wild type (%) of cyclic AMP produced; 5B3 100 µg/mL + TSH 3 ng/mL [13]: 103% | % inhibition of TSH stimulation; 5B3 10 µg/mL [14]: 0% | Cyclic AMP produced; 5B3 10 µg/mL + TSH 3 ng/mL [14]: 131 pmol/mL | Cyclic AMP produced; 5B3 100 µg/mL + TSH 3 ng/mL [14]: 112 pmol/mL

NIBSC reference preparation 90/672 (Thyroid Stimulating Autoantibody reference preparation)
Cyclic AMP concentration at 0.1 units/L NIBSC 90/672 [15]: 5 pmol/mL | Cyclic AMP concentration at 0.3 units/L NIBSC 90/672 [15]: 12.5 pmol/mL | Cyclic AMP concentration at 1 unit/L NIBSC 90/672 [15]: 27.4 pmol/mL

— patent US20110300138A1 (published 2011)
